This note sets out measurements from patent US8129349B2, “Treatment of disease by inducing cell apoptosis” (The Regents of the University of California, priority 2000, dated 2012).

The target of test [1] is T1, caspase 1 (Homo sapiens, UniProt P29466).
T1 construct: purchased Alexis Biochemicals 201-056
T1 sequence (P29466 120-404): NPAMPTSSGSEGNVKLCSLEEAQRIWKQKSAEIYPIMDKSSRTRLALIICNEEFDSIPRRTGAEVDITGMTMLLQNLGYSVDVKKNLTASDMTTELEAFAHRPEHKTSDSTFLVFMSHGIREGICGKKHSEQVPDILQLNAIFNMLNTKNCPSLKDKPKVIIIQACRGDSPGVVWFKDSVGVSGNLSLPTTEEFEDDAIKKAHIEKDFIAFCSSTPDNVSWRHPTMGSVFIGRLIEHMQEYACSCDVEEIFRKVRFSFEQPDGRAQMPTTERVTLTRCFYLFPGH
As to the kind of experiment: In vitro self-activation of recombinant caspase 1. It counts as biochemical. Particulars: peptides 200 μM, 2 h, procaspase 1 (1U). As for the experimental part:
(§1) FIG. 5 provides results showing the direct association of C/EBPβ-Glu^217 with procaspases 1 and 8. […] Enzyme activity was measured in the absence (control) or presence of C/EBPβ peptides (200 μM) for 2 h, using a procaspases 1 (1U) (not shown) and 8 (0.2 μg) activity assay. Values are presented as the mean±one half the range of duplicates. Panel C provides results for cells cultured on a collagen type I matrix and incubated with the indicated cell permeant, purified synthetic N-acetyl, C-aldehyde C/EBPβ tetra-peptides (10 μM) or with recombinant C/EBPβ-HA peptides as indicated, together with the Chariot reagent (Active Motif) for 4 h. Control cells were incubated without peptides (P<0.05 for all peptides containing Ala^217).
(§2) Purified recombinant C/EBPβ peptides, expressed as known in the art (See, Descombes et al., supra; and Buck et al. (1994), supra), and purified synthetic N-acetyl, C-aldehyde tetrapeptides (200 μM) (American Peptide Company) were assayed for their ability to inhibit the activity of purified human recombinant caspases 1 (catalogue # 201-056) and 8 (catalogue # 201-041-C005) (Alexis Biochemicals). The sequence of caspase 8 includes Ser217 through Asp479 cloned into an expression vector containing a 21 amino acid linker at the N-terminus. Thus, the prodomain (first 220 amino acids) is essentially missing. […] Caspase activity was determined by the release of the p-nitroaniline colorimetric (Alexis Biochemicals) substrate for caspase 1 (catalogue # 260-026) or 8 (catalogue # 260-045) within the linear part of the kinetic assay (Thornberry et al. (1997), supra; Stennicke and Salvesen, supra). […]
(§3) To delineate the role of C/EBPβ on the activation of procaspases 1 and 8, the self-activation of recombinant procaspases 1 and 8 was induced in vitro (Wilson et al., supra; Margolin et al., supra; and Earnshaw et al., supra), and the effect of purified recombinant C/EBPβ peptides, produced as described previously (Descombes et al., supra; and Buck et al., (1994), supra) on this process was determined. […]

For test [2], the target named is T2, caspase 8 (Homo sapiens, UniProt Q14790).
T2 construct: 21 amino acid linker (vector-derived) (N); purchased Alexis Biochemicals 201-041-C005
As to the kind of experiment: In vitro self-activation of recombinant caspase 8. The format is biochemical. Particulars: peptides 200 μM, 2 h, procaspase 8 (0.2 μg), colorimetric substrate. As for the experimental part:
as §1
FIG. 7 provides data showing that phosphorylation of rat C/EBPβ on Ser^105 prevents stellate cell apoptosis. Panel A provides results for mouse stellate cells transfected as described herein (See, FIG. 2), with mutant p90RSK or treated with lactacystin (10 μM) (closed bars), and co-transfected with CMV-rC/EBPβ-Asp^105 (1 μg each) (open bars) as indicated. Annexin-V-PE binding was determined as described for FIG. 2 (P<0.05 for rC/EBPβ-Asp^105). Panel B provides results of an annexin-V-PE assay for stellate cells from C/EBPβ^+/+ (closed circles) and rC/EBPβ-Asp^105 transgenic (open circles) mice treated with lactacystin (0-30 μM). The annexin-V-PE assay was performed 6 hours after treatment began (P<0.05 for rC/EBPβ-Asp^105 transgenic mice for 5-25 μM lactacystin). Panel C provides results for rC/EBPβ-HA constructs (0.3 μg) transfected into rat stellate cells. The expressed peptides were immunoprecipitated with anti-HA antibodies. Using a specific antibody, rCEBPβ-PSer^105 was detected only in cells that expressed wild-type rC/EBPβ. […] Reciprocal immunoprecipitations confirmed these associations. […] Enzyme activity was measured using a colorimetric substrate as described in the Examples. […]
as §2, with “Biochemicals).” for “Biochemicals). The sequence of caspase 8 includes Ser217 through Asp479 cloned into an expression vector containing a 21 amino acid linker at the N-terminus. Thus, the prodomain (first 220 amino acids) is essentially missing.”

Test [3] has as its system hepatic stellate cells. As to the kind of experiment: Apoptosis of activated stellate cells transfected with C/EBPβ constructs, annexin-V-PE binding. The format is cell-based, mouse. The note with it: apoptosis induced by dominant negative MEKK1, IκBα or RSK mutants or by lactacystin. The source says:
FIG. 1 provides data showing that phosphorylation of C/EBPβ on Thr^217 is required for hepatic stellate cell survival. Panel A provides phosphopeptide maps of in vivo labeled endogenous C/EBPβ in day-4 quiescent and activated primary mouse stellate cells cultured from the time of isolation on EHS or collagen type I matrix, respectively. The arrow indicates the peptide containing Phospho-Thr^217 in activated cells. […] Panel B provides phosphopeptide maps of in vitro labeled C/EPBβ. Active p90RSK phosphorylated C/EPBβ, but not C/EBPβ-Ala^217 on Thr^217 in vitro (arrowheads). Panel C provides results for cells cultured on collagen type I transfected with MSV-C/EBPβ antisense (AS), MSV-C/EBPβ sense (S), or MSV-C/EBPβ-Ala^217 together with CMV-GFP (green fluorescent protein) and p90RSK (1 μg each), as indicated in the Figure. Four hours after transfection, annexin-V-PE binding to plasma membranes was determined. The values presented are the percentage of transfected cells (green) that were annexin-V-PE (+) (red) (P<0.05 for C/EBPβ AS, and C/EBPβ-Ala^217). Panel D provides results for cells transfected as in […] with vectors expressing dominant negative mutants for MEKK1, IκBα, or p90RSK, or treated with the proteasome inhibitor lactacystin (10 μM) (closed bars), and co-transfected with MSV-C/EBPβ-Glu^217 (1 μg each) (open bars) as indicated. Annexin-V-PE binding was determined as described for Panel A (P<0.05 for C/EBPβ-Glu^217). Panel E provides results for cells transfected as described for Panel C, with a dominant-negative p90RSK, treated with FAS (100 nM for 6 hours) or cultured in a serum-free medium for 6 hours (closed bars), and co-transfected with MSV-C/EBPβ-Glu^217 (1 μg each) (open bars), as indicated. Cell death was determined by nuclear staining with Hoechst 33342 (P<0.05 for C/EBPβ-Glu^217 in RSK mut and FAS-treated cells).
FIG. 4 provides results showing that C/EBPβ PThr^217 associates with procaspases 1 and 8, and inhibits their activation. Panel A provides schematic representations of C/EBPβ peptides. The activation (dotted bars), DNA binding (solid bars) and dimerization (hatched bars) domains are shown. […] Panel C provides results showing that C/EBPβ and procaspase 8 were detected in activated stellate cells isolated from C/EBPβ^+/+ mice by confocal microscopy using specific antibodies (Santa Cruz Biotechnology). Control C/EBPβ^−/− stellate cells were negative for C/EBPβ, positive for procaspase 8, and apoptotic. Panel D provides immunoblot results for MSV vectors expressing C/EBPβ-HA (hemagglutinin protein) peptides (0.3 μg) transfected into activated stellate cells. The expressed peptides were immunoprecipitated with anti-HA antibodies. C/EBPβ-PThr^217 was detected using a specific antibody, only in cells expressing wild-type C/EBPβ. […] RSK was associated with all C/EBPβ peptides. Neither C/EBPβ nor procaspases 1 and 8 were detected in C/EBPβ immunoprecipitates from cells expressing C/EBPβ AS. Reciprocal immunoprecipitations of procaspases and RSK confirmed these associations.
Adult male Sprague-Dawley rats and adult male C/EBPβ^+/+ and C/EBPβ^−/− (Screpanti et al., supra; and Buck et al., (1999), supra), C/EBPβ-Ala^217 and C/EBPβ-Asp^105 transgenic mice were used for the isolation of primary hepatic stellate cells (Houglum et al., supra). Primary hepatic stellate cells were isolated by collagenase/pronase perfusion and purified by a single step density Nycodenz gradient (Accurate Chemical & Scientific) as known in the art (See, Lee et al., (1995), supra). Cells were plated on type I collagen matrix (Becton Dickinson) or EHS matrix (Matrigel, Collaborative Biomedical Products). Cells were cultured with 10% fetal calf serum/10% fetal bovine serum and transfected with lipofectamine (GIBCO) for DNA vectors or with the Chariot reagent (Active Motif) for peptides (10 μM) as known in the art (See, Houglum et al., supra; and Morris et al., J. Biol. Chem., 274:24942-24946 (1999)). […]

In test [4] the target is procaspase 8 (Homo sapiens, UniProt Q14790). As to the kind of experiment: Co-immunoprecipitation of purified recombinant procaspase 8 with recombinant C/EBPβ peptides. The format is binding. Also on record: 21 amino acid linker (vector-derived) (N); purchased Alexis Biochemicals 201-041-C005. The note with it: peptides 200 μM, procaspase 8 0.12 μg, quantitated by densitometry. As for the experimental part: as §1, §2, §3

In test [5] the target is T3, procaspase 1 (Homo sapiens, UniProt P29466).
T3 construct: purchased Alexis Biochemicals 201-056
T3 sequence (P29466 1-404): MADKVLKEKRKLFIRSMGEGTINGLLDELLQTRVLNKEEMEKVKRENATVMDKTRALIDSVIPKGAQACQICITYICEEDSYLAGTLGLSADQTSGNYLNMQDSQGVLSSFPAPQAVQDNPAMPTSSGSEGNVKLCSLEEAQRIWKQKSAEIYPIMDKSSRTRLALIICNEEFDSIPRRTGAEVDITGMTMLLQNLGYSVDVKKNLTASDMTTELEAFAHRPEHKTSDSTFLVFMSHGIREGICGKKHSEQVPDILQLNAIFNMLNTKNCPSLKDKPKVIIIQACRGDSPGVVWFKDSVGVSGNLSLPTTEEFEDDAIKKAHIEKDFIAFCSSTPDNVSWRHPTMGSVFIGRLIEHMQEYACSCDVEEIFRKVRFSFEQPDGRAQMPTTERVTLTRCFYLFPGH
As to the kind of experiment: Co-immunoprecipitation of purified recombinant procaspase 1 with recombinant C/EBPβ peptides. The format is binding. Particulars: peptides 200 μM, procaspase 1 0.6 U, quantitated by densitometry. As for the experimental part: as §1
Purified recombinant C/EBPβ peptides, expressed as known in the art (See, Descombes et al., supra; and Buck et al. (1994), supra), and purified synthetic N-acetyl, C-aldehyde tetrapeptides (200 μM) (American Peptide Company) were assayed for their ability to inhibit the activity of purified human recombinant caspases 1 (catalogue # 201-056) and 8 (catalogue # 201-041-C005) (Alexis Biochemicals). The sequence of caspase 8 includes Ser217 through Asp479 cloned into an expression vector containing a 21 amino acid linker at the N-terminus. Thus, the prodomain (first 220 amino acids) is essentially missing. The fragment is cleaved at Asp385 and the active caspases are essentially identical to those identified in apoptotic cells (Stennicke and Salvesen, Meth. Enzymol., 322:91-100 (1997)). Caspase activity was determined by the release of the p-nitroaniline colorimetric (Alexis Biochemicals) substrate for caspase 1 (catalogue # 260-026) or 8 (catalogue # 260-045) within the linear part of the kinetic assay (Thornberry et al. (1997), supra; Stennicke and Salvesen, supra). Caspase 1 and 8 activity in cells was performed with colorimetric kits (catalogues # 850-211-K and 850-221-K) as described by the manufacturer (Alexis) (See also, Thornberry et al. (1997), supra). The caspase 8 inhibitor IETD was from Calbiochem (Catalogue # 218773).
as §3, with “determined. Consistent with the in vivo results described above, C/EBPβ-HA-Glu^217 and C/EBPβ 216-253-HA-Glu^217, but not C/EBPβ-HA-Ala^217, peptides associated with procaspases 1 and 8 (See, FIG. 5, Panel A).” for “determined.”

Non-standard residues stand in square brackets, D forms with d. pT = C[C@@H](OP(=O)(O)O)[C@H](N)C(=O)O

Sequence of procaspase 8 (Q14790 217-479): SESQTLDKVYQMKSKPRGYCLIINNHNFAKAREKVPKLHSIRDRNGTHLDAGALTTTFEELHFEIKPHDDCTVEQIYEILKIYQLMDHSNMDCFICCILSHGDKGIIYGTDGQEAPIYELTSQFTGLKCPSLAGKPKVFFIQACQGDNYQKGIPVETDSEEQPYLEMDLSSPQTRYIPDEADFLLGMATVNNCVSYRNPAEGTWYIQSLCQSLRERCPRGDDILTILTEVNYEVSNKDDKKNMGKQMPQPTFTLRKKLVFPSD
T2 sequence (Q14790 217-479): as above

Take “Ac-K-Phospho-T^217VD-CHO (Ac-K[pT]VD-aldehyde; SMILES CC(=O)N[C@@H](CCCCN)C(=O)N[C@H](C(=O)N[C@H](C(=O)N[C@H](C=O)CC(=O)O)C(C)C)[C@@H](C)OP(=O)(O)O) [synthetic N-acetyl, C-aldehyde C/EBPβ 216-219-PThr^217 tetrapeptide]”: the “Inhibition of in vitro self-activation of caspase 1” value in test [1] is recorded as “inhibited the in vitro self-activation”. In addition, the “Inhibition of in vitro self-activation of caspase 8” value in test [2] is recorded as “inhibited the in vitro self-activation”.
In the case of “C/EBPβ 216-253-Glu^217: C/EBPβ fragment 216-253 with Glu^217, lacking the activation and dimerization domains (KEVDKLSDEYKMRRERNNIAVRKSRDKAKMRNLETQHK; left off: small tags and cut ends)”, in test [3], the “Rescue from induced apoptosis by expressed construct” value is “sufficient to rescue cells from apoptosis”. Further, the “Co-immunoprecipitation of procaspase 8, fold more than the Ala^217 peptides” value in test [4] is 12 fold. Moreover, in test [5], the “Co-immunoprecipitation of procaspase 1, fold more than the Ala^217 peptides” value was 7 fold.
